From patent US20260242735A1 (UNIVERSIT T BASEL, published 2026) come the findings set out here.

Common to all, as to experiment: BLI (Octet R8), avidity format: biotinylated CD33 on streptavidin sensor, Refmab #3 as analyte at 500 nM;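 also: analyte association recorded over 300 s, then dissociation followed for 900 s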
A general note: Biolayer interferometry detects binding as a change in optical thickness at a sensor tip.

Test [1] addresses CD33 variant W22D (recombinant, biotinylated) (human, UniProt P20138 18-259, biotinylated with EZ-Link Sulfo-NHS-LC-Biotin (sites not given)).
Test [2] has as its target CD33 variant N20H (recombinant, biotinylated) (human, UniProt P20138 21-259, biotinylated with EZ-Link Sulfo-NHS-LC-Biotin (sites not given)).
Test [3] deals with CD33 variant N20E (recombinant, biotinylated) (human, UniProt P20138 21-259, biotinylated with EZ-Link Sulfo-NHS-LC-Biotin (sites not given)).
Sequence of CD33 variant N20E (recombinant, biotinylated) (P20138 other isoform, or with tags, fused parts or gaps N20E N20E): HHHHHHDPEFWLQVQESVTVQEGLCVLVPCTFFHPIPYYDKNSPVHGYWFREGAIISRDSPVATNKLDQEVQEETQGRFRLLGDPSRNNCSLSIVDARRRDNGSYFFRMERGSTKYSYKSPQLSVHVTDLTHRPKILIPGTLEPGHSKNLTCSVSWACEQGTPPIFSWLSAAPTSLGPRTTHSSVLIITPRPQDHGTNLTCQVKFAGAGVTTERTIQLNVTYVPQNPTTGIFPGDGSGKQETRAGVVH
In test [4] the target is CD33 double variant Y50H_H49H (recombinant, biotinylated) (human, UniProt P20138 18-259, biotinylated with EZ-Link Sulfo-NHS-LC-Biotin (sites not given)).
Test [5] has as its target CD33 variant F44P (recombinant, biotinylated) (human, UniProt P20138 18-259, biotinylated with EZ-Link Sulfo-NHS-LC-Biotin (sites not given)).
Test [6] deals with CD33 variant F21Q (recombinant, biotinylated) (human, UniProt P20138 22-259, biotinylated with EZ-Link Sulfo-NHS-LC-Biotin (sites not given)).
Sequence of CD33 variant F21Q (recombinant, biotinylated) (P20138 other isoform, or with tags, fused parts or gaps F21Q F21Q): as the sequence (P20138 other isoform, or with tags, fused parts or gaps N20E N20E) above, with E9N, F10Q counted along it
Test [7] concerns the target CD33 variant N20K (recombinant, biotinylated) (human, UniProt P20138 21-259, biotinylated with EZ-Link Sulfo-NHS-LC-Biotin (sites not given)).
For test [8], the target named is T1, CD33 wild type (recombinant, biotinylated) (human, UniProt P20138 18-259, biotinylated with EZ-Link Sulfo-NHS-LC-Biotin (sites not given)).
T1 construct: also called WT; CD33 wt

Test [9] concerns the target CD33 variant W22R (recombinant, biotinylated) (human, UniProt P20138 18-259, biotinylated with EZ-Link Sulfo-NHS-LC-Biotin (sites not given)).
For test [10], the target named is CD33 variant Y50D (recombinant, biotinylated) (human, UniProt P20138 18-259, biotinylated with EZ-Link Sulfo-NHS-LC-Biotin (sites not given)).
Sequence of CD33 variant Y50D (recombinant, biotinylated) (P20138 other isoform, or with tags, fused parts or gaps Y50D Y50D): as the sequence (P20138 other isoform, or with tags, fused parts or gaps N20E N20E) above, with E9N, Y39D counted along it
Test [11] concerns the target CD33 variant F21H (recombinant, biotinylated) (human, UniProt P20138 22-259, biotinylated with EZ-Link Sulfo-NHS-LC-Biotin (sites not given)).
Test [12] addresses CD33 variant F21I (recombinant, biotinylated) (human, UniProt P20138 22-259, biotinylated with EZ-Link Sulfo-NHS-LC-Biotin (sites not given)).
For test [13], the target named is CD33 variant Y50R (recombinant, biotinylated) (human, UniProt P20138 18-259, biotinylated with EZ-Link Sulfo-NHS-LC-Biotin (sites not given)).
Sequence of CD33 variant Y50R (recombinant, biotinylated) (P20138 other isoform, or with tags, fused parts or gaps Y50R Y50R): as the sequence (P20138 other isoform, or with tags, fused parts or gaps N20E N20E) above, with E9N, Y39R counted along it
Test [14] addresses CD33 variant N20G (recombinant, biotinylated) (human, UniProt P20138 21-259, biotinylated with EZ-Link Sulfo-NHS-LC-Biotin (sites not given)).
Test [15] deals with CD33 variant W22E (recombinant, biotinylated) (human, UniProt P20138 18-259, biotinylated with EZ-Link Sulfo-NHS-LC-Biotin (sites not given)).
Sequence of CD33 variant W22E (recombinant, biotinylated) (P20138 other isoform, or with tags, fused parts or gaps W22E W22E): as the sequence (P20138 other isoform, or with tags, fused parts or gaps N20E N20E) above, with E9N, W11E counted along it
Test [16] deals with CD33 variant F21V (recombinant, biotinylated) (human, UniProt P20138 22-259, biotinylated with EZ-Link Sulfo-NHS-LC-Biotin (sites not given)).
Sequence of CD33 variant F21V (recombinant, biotinylated) (P20138 other isoform, or with tags, fused parts or gaps F21V F21V): as the sequence (P20138 other isoform, or with tags, fused parts or gaps N20E N20E) above, with E9N, F10V counted along it
For test [17], the target named is CD33 variant W22T (recombinant, biotinylated) (human, UniProt P20138 18-259, biotinylated with EZ-Link Sulfo-NHS-LC-Biotin (sites not given)).
Sequence of CD33 variant W22T (recombinant, biotinylated) (P20138 other isoform, or with tags, fused parts or gaps W22T W22T): as the sequence (P20138 other isoform, or with tags, fused parts or gaps N20E N20E) above, with E9N, W11T counted along it
The target of test [18] is CD33 variant W22K (recombinant, biotinylated) (human, UniProt P20138 18-259, biotinylated with EZ-Link Sulfo-NHS-LC-Biotin (sites not given)).
Sequence of CD33 variant W22K (recombinant, biotinylated) (P20138 other isoform, or with tags, fused parts or gaps W22K W22K): as the sequence (P20138 other isoform, or with tags, fused parts or gaps N20E N20E) above, with E9N, W11K counted along it
For test [19], the target named is CD33 variant F21M (recombinant, biotinylated) (human, UniProt P20138 22-259, biotinylated with EZ-Link Sulfo-NHS-LC-Biotin (sites not given)).
Sequence of CD33 variant F21M (recombinant, biotinylated) (P20138 other isoform, or with tags, fused parts or gaps F21M F21M): as the sequence (P20138 other isoform, or with tags, fused parts or gaps N20E N20E) above, with E9N, F10M counted along it
Test [20] has as its target CD33 variant F21S (recombinant, biotinylated) (human, UniProt P20138 22-259, biotinylated with EZ-Link Sulfo-NHS-LC-Biotin (sites not given)).
The target in test [21] is CD33 variant N20V (recombinant, biotinylated) (human, UniProt P20138 21-259, biotinylated with EZ-Link Sulfo-NHS-LC-Biotin (sites not given)).
Sequence of CD33 variant N20V (recombinant, biotinylated) (P20138 other isoform, or with tags, fused parts or gaps N20V N20V): as the sequence (P20138 other isoform, or with tags, fused parts or gaps N20E N20E) above, with E9V counted along it
Test [22] concerns the target CD33 variant F21N (recombinant, biotinylated) (human, UniProt P20138 22-259, biotinylated with EZ-Link Sulfo-NHS-LC-Biotin (sites not given)).
For test [23], the target named is CD33 variant F21L (recombinant, biotinylated) (human, UniProt P20138 22-259, biotinylated with EZ-Link Sulfo-NHS-LC-Biotin (sites not given)).
Sequence of CD33 variant F21L (recombinant, biotinylated) (P20138 other isoform, or with tags, fused parts or gaps F21L F21L): as the sequence (P20138 other isoform, or with tags, fused parts or gaps N20E N20E) above, with E9N, F10L counted along it
For test [24], the target named is CD33 variant Y50K (recombinant, biotinylated) (human, UniProt P20138 18-259, biotinylated with EZ-Link Sulfo-NHS-LC-Biotin (sites not given)).

Sequence of CD33 variant N20G (recombinant, biotinylated) (P20138 other isoform, or with tags, fused parts or gaps N20G N20G): as the sequence (P20138 other isoform, or with tags, fused parts or gaps N20E N20E) above, with E9G counted along it
Sequence of CD33 variant F21N (recombinant, biotinylated) (P20138 other isoform, or with tags, fused parts or gaps F21N F21N): as the sequence (P20138 other isoform, or with tags, fused parts or gaps N20E N20E) above, with E9N, F10N counted along it
Sequence of CD33 variant N20H (recombinant, biotinylated) (P20138 other isoform, or with tags, fused parts or gaps N20H N20H): as the sequence (P20138 other isoform, or with tags, fused parts or gaps N20E N20E) above, with E9H counted along it
Sequence of CD33 variant N20K (recombinant, biotinylated) (P20138 other isoform, or with tags, fused parts or gaps N20K N20K): as the sequence (P20138 other isoform, or with tags, fused parts or gaps N20E N20E) above, with E9K counted along it
Sequence of CD33 variant F44P (recombinant, biotinylated) (P20138 other isoform, or with tags, fused parts or gaps F44P F44P): as the sequence (P20138 other isoform, or with tags, fused parts or gaps N20E N20E) above, with E9N, F33P counted along it
Sequence of CD33 variant F21S (recombinant, biotinylated) (P20138 other isoform, or with tags, fused parts or gaps F21S F21S): as the sequence (P20138 other isoform, or with tags, fused parts or gaps N20E N20E) above, with E9N, F10S counted along it
Sequence of CD33 variant F21H (recombinant, biotinylated) (P20138 other isoform, or with tags, fused parts or gaps F21H F21H): as the sequence (P20138 other isoform, or with tags, fused parts or gaps N20E N20E) above, with E9N, F10H counted along it
Sequence of CD33 variant F21I (recombinant, biotinylated) (P20138 other isoform, or with tags, fused parts or gaps F21I F21I): as the sequence (P20138 other isoform, or with tags, fused parts or gaps N20E N20E) above, with E9N, F10I counted along it

B1: Refmab #3 (antibody, human IgG1, V domains shown)
VH: QVQLVQSGAEVKKPGSSVKVSCKASGYTFTDYNMHWVRQAPGQGLEWIGYIYPYNGGTGYNQKFKSKATITADESTNTAYMELSSLRSEDTAVYYCARGRPAMDYWGQGTLVTVSS
VL: DIQMTQSPSSLSASVGDRVTITCRASESVDNYGISFMNWFQQKPGKAPKLLIYAASNQGSGVPSRFSGSGSGTDFTLTISSLQPDDFATYYCQQSKEVPWTFGQGTKVEIK
As to B1, the “% WT binding” value in [1] was found to be 6.42 % WT binding; in test [2], 5.39 % WT binding; in [3], 0 % WT binding; in [4] it was 58.5 % WT binding; in test [5], 0 % WT binding; in test [6] it was 0 % WT binding. For the same molecule, the “% WT binding” value in [7] turned out to be 0 % WT binding; in test [8], 100 % WT binding; in [9], 0.86 % WT binding; in [10], 128 % WT binding; in test [11] it was 0 % WT binding; in [12], 0 % WT binding. The “% WT binding” value in [13] amounted to 93.1 % WT binding; in test [14], 0 % WT binding; in [15], 23.5 % WT binding; in [16], 0 % WT binding; in test [17] it was 5.25 % WT binding; in test [18], 0 % WT binding. Besides, the “% WT binding” value came to 0 % WT binding in test [19]; 0 % WT binding in test [20]; 6.62 % WT binding in test [21]; 0 % WT binding in [22]; 0 % WT binding in test [23]; 73.9 % WT binding in test [24].
